Results taken from the nanobody polyreactivity screen of Harvey et al. (2022).

Test: yeast display, Sf9 membrane polyspecificity reagent, FACS + sequencing; frameworks hold sequencing errors
Outline: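 Using colony PCR, genes from sorted yeast display clones were amplified, then sequenced on MiSeq at 2 × 250 and filtered by CDR length. The clones had been stained with 10% biotinylated, detergent-solubilized Sf9 membrane reagent for 1 hour at 4 °C and sorted by FACS into low and high (top ~1%) gates on anti-HA and streptavidin fluorescence. Polyreactivity labels come from the gate of origin.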

Sequence | polyreactivity (PSR sort gate)
QVQLVESGGGLVQAGGSLRLSCAATGRTFQDNAMGWYRQAPGKERELVAAISWRGGSTNYADSVKGRFTISRDNAKNTVYLQMNSLKPEDTAVYYCNRDPRKYGKLDYWGQGTQVTVSS | low polyreactivity
QVQLVESGGGLVQAGGSLRLSCAATGRTFQFNAMGRYRQAPGKERELVAAITSNGGSTNYADSVKGRFTISRDNAKNTVYVQMNSLKPEDTAVYYSAAPRFRYYYWDMDYWGQGTQVTVSS | low polyreactivity
QVQLVESGGGLVQAGGSLRLSCAATGSIFDLNSMGWYRQAPGKEREVVAAISSGGGTYYADSVKGRFTISRDNANNTVFLQMNSLKPEDTAVYYCIRVTYRSRGRDYWGQGNQVTVSS | high polyreactivity
QVQLVESGGGLVQAGGSLRLSCAATGSIFLYYAMGWYRQAPGKERELVAGINRVGSTNYADSVKGRFTISRDNAKNTVYLELNSLKPEDTAVYYCAAKYRNRYDYWGQGTQATVSS | low polyreactivity
QVQLVESGGGLVQAGGSLRLSCAATGSIFQSYAMGRYRQAPGKERELVAGISSGGSTNYADSVKGRFTISRDNAMNTDYLQMNSLKPEDTAVYYCATGGFAGASFAYEYYYWGQGTQVTVSS | low polyreactivity
QVQLVESGGGLVQAGGSLRLSCAATGSIFRWNTMGWYRPAPGKERELVAVITWSGDSTYYADSVKGRFTISRDNAKNTVYLQMNSLKPEDTAVYYCAVDVVTSYYELTGSFNYWGQGTQVTVSS | low polyreactivity
QVQLVESGGGLVQAGGSLRLSCAATGSIFRYNTMGWYRQAPGKERELVATITRRGGSTYYADSVKGRITISRDNAKNTVYLQMNSLKPVDTAVYYCNDDNFGGPYNYWGQGTQVTVSS | low polyreactivity
QVQLVESGGGLVQAGGSLRLSCAATGSIFYNYAMGWYRQAPGKERELVAAINRSGGITFYADSVKGRFTISRDNAKNTVYLQMNSLKPEDTAVYYCAAEEVPYDRDMDYWGQGTQVTVSS | low polyreactivity
QVQLVESGGGLVQAGGSLRLSCAATGSILNYYAMGWYRQAPGKERELVATISSGGNTHYADSVKGRFTISRDNAKNTVYLQMNSLKPEDTAVYYSAAVASKHWGRDYWGQGTQVTVSS | low polyreactivity
QVQLVESGGGLVQAGGSLRLSCAATGSPFILYALGWYRQAPGKERALVAAITTSGGSTYYADSVKGRFTISRDNAKNTVYLQMNSLKPEDTAVYYCNADWGWRYSSDFDYWGQGTQVTVSS | low polyreactivity
QVQLVESGGGLVQAGGSLRLSCAATGSTVDFYAMGWNRQAPRKERELVAAISWSAGSTYYADSVKGRFTISRDNAKNTVYLQMNSLKPEDTAVYYCNADYWGQGTQVTVSS | low polyreactivity
QVQLVESGGGLVQAGGSLRLSCAATVSTFWNYAMGWYRQAPGKERELVAAITRGSSTNYADSVKGRFRISRDNAKNTVYLQMNSLKPEVTAVYYCAKRVGRWSAFYYWGQGTQVTVSS | high polyreactivity
QVQLVESGGGLVQAGGSLRLSCAAYGFFYNAMGWYRPAPGKERELVAAISWSGASTYYADSVKGRFTISRDNAKNTVYLQMNSLKPEDTAVFYCNADPRLRQTRDYWGQGTQVSVSS | high polyreactivity
QVQLVESGGGLVQAGGSLRLSCAAYGFIFGGNAMGWYRQAPGKERELVAAITARSGSTYYADSVKGRFTISRDNAKNTVYLQMNSLKPEDTAVYYCATPVYRSTYEYDYWGQGTQVTVSS | low polyreactivity
QVQLVESGGGLVQAGGSLRLSCAAYGFIFSYYAMGWFRQAPGKEREFVATITWRGGSTYYADSVKGRFTISRDNAKNTVYLQMNSLKPEDTAVYYCAARKRTPGYGYWGQGTQVTVSS | high polyreactivity
QVQLVESGGGLVQAGGSLRLSCAAYGFIFSYYTMGWYRQAPGKERELVAAISYSGGSTYYADSVKGRFTISRDNAKNNVYLQMNSLKPEDTAVYYCTAVAAATYDYWGQGTQVTVSS | high polyreactivity
QVQLVESGGGLVQAGGSLRLSCAAYGFIIARNAMGWYRQAPGKERELVAAISAAGGRTYYADSVKGRFTISRDNAKITVYFQMNSLKPEDTAVYYCAARRDGRCGSYNYWGQGTQVTVSS | high polyreactivity
QVQLVESGGGLVQAGGSLRLSCAAYGITFPSYVMGWYRQAPGKERELVAAISWRGGSTYYADSVKGRFTISRDNAKNTVYLQMNSLKPEDTAVYYCAAEYLVWYTFYPKYDYWGQGTQVTVSS | high polyreactivity
QVQLVESGGGLVQAGGSLRLSCAAYGITFYLYAMGWYIQAPGKERELVAAITSSGGSTYYADSVKGRFTISRDNAKNTVYFQMNSLKPEDTAVYYCNALYFSQDRYDYWGQGTQVTVSS | high polyreactivity
QVQLVESGGGLVQAGGSLRLSCAAYGLTFYGYGMGWYRQAPGKERELVASITSGGNTYYADSVKGRFTISRDNAKNTVYLQMNSLKPEDTAVYYCAVTAIALYYSSGYYWGQGTQVTVSS | low polyreactivity
QVQLVESGGGLVQAGGSLRLSCAAYGNTFYPYTMGWYRQAPGKERELVADITYIGGDTYYADSVKGRFTISRDNAKNTVYLQMNSLKPEDTAVYYCNKDGGYFETYHTYTLDDYWGQGTQVTVSS | low polyreactivity
QVQLVESGGGLVQAGGSLRLSCAAYGRIFKYYVMGWYRPAPGKERELVATISSGSGTNYADSVKGRFTISRDNAKNTVYLQMNSLKPEDTAVYYCAARWTPRVRGYNYWGQGTLVTVSS | high polyreactivity

Sequence | polyreactivity (PSR sort gate)
QVQLVESGGGLVQAGGSLRLSCAAYGRIFSTYAMGWYRQAPGKERELVAAINSIGGRTYYADSVKGRFTISRDNAKNTVYLQMNSLKPEDTAVYYCAAGYRTRRGLGYYYWGQGTQVTVSS | high polyreactivity
QVQLVESGGGLVQAGGSLRLSCAAYGRISYYYAMGWYRQAPGKERELVAAITYSTGSTYYADSVKGRFTISRDNAKNTVYLQMNSLKPEDSAVYYCAARYWRWLFPFDYWGQGTKVTVSS | high polyreactivity
QVQLVESGGGLVQAGGSLRLSCAAYGRTFASYALGWYRQAPGKEREFVAVISVNGGNTYYADSVKGRFTISRDNAKNTVYLQMNSLKPEDTAVYYCARFDGWYQGYYPLYEFDYWGQGTQVTVSS | high polyreactivity
QVQLVESGGGLVQAGGSLRLSCAAYGRTFDTYAMGWYLQAPGKERELVAAISFSGASTYYADSVKGRFTISRDNAKNTVYLQLNSLKPEDTAVYYCNARYGYRVPLTPIGARFNYWGQGTQETVSS | high polyreactivity
QVQLVESGGGLVQAGGSLRLSCAAYGRTFFWNAMGLYRKAPGTETELVAAITWSGGSTYYADSVKGRFTISRDNAKITVYLQMNSLKPEDTAVYYCASVVSDYVWRYEYWGQGTQVTVSS | low polyreactivity
QVQLVESGGGLVQAGGSLRLSCAAYGRTFNDYAMGWYRQAPGKERELVAAIDSDGDTNYADSVKGRFTISRDNAKNTVYLQMNSLKPEDTAVFYCNAVRLVVQEWYYYFTFDYWGQGTQVTVSS | low polyreactivity
QVQLVESGGGLVQAGGSLRLSCAAYGRTIRYYSMGRYRQAPAKERELVATISRRSGNTYYADSVKGRFTLSRDNAKNTVYLKMNSLKPEDTAVYYCAVRYFGLYNYDYWGQGTQVTVSS | high polyreactivity
QVQLVESGGGLVQAGGSLRLSCAAYGRTITYYAMGGYRQSPGKERELVAAIPWSGGSTYYADSVKGRFTISRDNAKNTVYLQMNSLKPEDTAVYYCSADSYIYSVNYWGQGTQLTVSS | low polyreactivity
QVQLVESGGGLVQAGGSLRLSCAAYGSIFCIFAMGWYRQAPGKEWELVAAISSDGSTKYADSVKGRFTISRDNAKNTVYFQMNSLKPEDTAVYYCAKLKYVRIGGPKQSMALDYWGQGTQVTVSS | low polyreactivity
QVQLVESGGGLVQAGGSLRLSCAAYGSIFPYYAMGWYRQAPGKERELVAGITSGTRTNYADSVKGRFTISRDNAKNTVYLQMNSLKPEDTAVYYCAAYYRAYRRDYYWGQGTQVTVSS | high polyreactivity
QVQLVESGGGLVQAGGSLRLSCAAYGSIFSFYVMGWNRQAPGKERELVARINWSSTSTYYADSVKGRFTISRDNAKNTVYLQMNSLKPEDTAVYYCAAGRRVYPGYYYWGQGTQVTVSS | high polyreactivity
QVQLVESGGGLVQAGGSLRLSCAAYGSTFFRYAMGWYRQAPGKERELVAAISASTGSTYYADSVKGRFTISRDNAKNTVYLQMNSLKPEDTAVYYCNAELGYGTNDNWYDYWGKGTQVTVSS | low polyreactivity
QVQLVESGGGLVQAGGSLRLSCAAYGSTFRSYAMGWYRQAPGKERELVAAISYSGDSTYYADSVKGRFTISRDNAKNTVYLQMNSLKPEDTAVYYCAALRDWDFQCEPWKRYGYWGQGTLVTVSS | low polyreactivity
QVQLVESGGGLVQAGGSLRLSCAAYGSTFRTNAMGWYRQAPGKERELVAAISQRGGSTYYADSVKGRFTISRDNAKNTVYLQMNSLKPEDTGVYYCAARRYAYQSGGTLLTDDYWGQGTQVTVSS | high polyreactivity
QVQLVESGGGLVQAGGSLRLSCAAYGSTFVWNTMGWYLQAPGKERELVAAINWSGTRTYYADSVKGRFTISRDNAKNTVYLQMNSLKPEDTAVYYCAAESYYPAGIRGYWGQGTQVTVSS | high polyreactivity
QVQLVESGGGLVQAGGSLRLSCAAYGYIFRLYAMGWYRQAPGKERELVAGISTGGRTNYADSVKGRFTISRDNAKNTVYLQMNSLKPEDTAVYYCAAAWHTAYWVVSDSLGGGYWGQGTQVTVSS | low polyreactivity
QVQLVESGGGLVQAGGSLRLSCAAYVRIFGYYAMGWYRQAPGKERELVAGISARGGSTYYADSVKGRLTISRDNAKNTVYLQMNSLKPEDTAVYYCAAYYLWPGYLFRPYDYWGHGTQVTVSS | low polyreactivity
QVQLVESGGGLVQAGGSLRLSCAAYYAMGWYRQAPGKERELVAAISSTGRTNYADSVKGRFTISRDYAKNTVYLQMNSLKPEDTAVYYCNAGDPSGMDYWGQGTQVTVSS | low polyreactivity
QVQLVESGGGLVQAGGSLRLSCADSGFIFGNYAMGWYRQAPGKERELVAGISGSGGSTYYADSVKGRFTISRDNAKNTVYLQMNSLKPEDTAVYYCNAGWHPSQGRFEYWGQGTQVTVSS | high polyreactivity
QVQLVESGGGLVQAGGSLRLSCADSGFIFTVNAMGLYRQAPGKERELVAAITSGGNTYYADSVKGRFTISRDNAKNTVYLQMNSLKPEDAAVYYCNAVFYTWSPYGTTVRSYGYWGQGTQVTVSS | high polyreactivity
QVQLVESGGGLVQAGGSLRLSCADSGFILGANDMGWYRQAPGKERELVAAIRSSDGTTYYADSVKGRFTISRDNAKNTVYLQMNSLKPEDTAVYYCAADWRLLYDYWGQGTQVTVSS | high polyreactivity
